This note sets out measurements from patent US11072647B2, “TGF-receptor II isoform, fusion peptide, methods of treatment and methods in vitro” (Onsejo Nacional DE Investigation Cientiticay Tecnica, priority 2013, dated 2021).

This assay deals with A549 cells. As to the kind of experiment: MTT proliferation assay in transduced A549 cells with TGFβ-1. The class given is cell-based, human. The procedure:
Additionally, to check whether TβRII-SE acts as a TGFβ-1 agonist, A459 cells either overexpressing TβRII-SE or not (untransduced cells or UT) were incubated in the presence of increasing concentrations of TGFβ-1 (FIG. 10B). […] However, in cells overexpressing TβRII-SE, proliferation started to decrease at a TGFβ-1 concentration of 0.1 nM compared to the same cell line without the addition of TGF-β1.
A549 cells were transduced with lentiviral vectors at a multiplicity of infection (MOI) of 50 in the presence of 8 μg/ml polybrene. Percentage of eGFP positive cells was measured in a FACscalibur (Becton Dikinson) cytometer.
Cells were harvested, counted, and inoculated at the appropriate concentrations into 96-well plates using a multichannel pipette. After 24 hr, TGF-β1 (10 ng/ml and 20 ng/ml; Sigma) was added to the culture wells, and cultures were incubated for 24 hr and 48 hr at 37° C., under an atmosphere of 5% CO2. MTT (3-(4,5-dimethylthiazol-2-yl)-2,5-diphenyltetrazolium bromide) (Sigma) solution at a concentration of 5 mg/ml was added to the media and the cells were further incubated for 4 hr. After replacing 100 μl of supernatant with 100 μl of DMSO, the absorbance of each well was determined at 540 nm with a SEAC (Sirio S) photometer (Italy). The percentage of cell survival was defined as the relative absorbance of treated versus untreated cells.

B1: TβRII-SE: 80 amino acid soluble endogenous isoform of human TGF-β receptor II lacking the transmembrane domain, SEQ ID No. 2 (protein, listed as Homo sapiens)
chain: MGRGLLRGLWPLHIVLWTRIASTIPPHVQKSVNNDMIVTDNNGAVKFPQLCKFCDVRFSTCDNQKSCFSKVHYEGKKKAW
Turning to B1, the “TGFβ-1 concentration at which proliferation started to decrease” value (cells overexpressing TβRII-SE, increasing TGFβ-1 concentrations (UT cells: 0.2 nM)) is 0.1 nM. Besides, the “cell proliferation (MTT)” value (transduced A549 cells, 0.4 nM TGFβ-1 vs untreated) was “proliferate significantly less than the same cells not treated with TGFβ-1”.
